Test in all cases: cell-based or functional assay
In experiment [1] the target is ADA envelope glycoproteins on recombinant HIV-1 (HIV-1, primary isolate ADA).
Experiment [2] concerns the target HXBc2 envelope glycoproteins on recombinant HIV-1 (HIV-1, TCLA strain HXBc2) (UniProt P04578).
In experiment [3] the target is YU2 envelope glycoproteins on recombinant HIV-1 (HIV-1, primary isolate YU2) (UniProt P35961).
UniProt P35961, sequence (P35961 32-843): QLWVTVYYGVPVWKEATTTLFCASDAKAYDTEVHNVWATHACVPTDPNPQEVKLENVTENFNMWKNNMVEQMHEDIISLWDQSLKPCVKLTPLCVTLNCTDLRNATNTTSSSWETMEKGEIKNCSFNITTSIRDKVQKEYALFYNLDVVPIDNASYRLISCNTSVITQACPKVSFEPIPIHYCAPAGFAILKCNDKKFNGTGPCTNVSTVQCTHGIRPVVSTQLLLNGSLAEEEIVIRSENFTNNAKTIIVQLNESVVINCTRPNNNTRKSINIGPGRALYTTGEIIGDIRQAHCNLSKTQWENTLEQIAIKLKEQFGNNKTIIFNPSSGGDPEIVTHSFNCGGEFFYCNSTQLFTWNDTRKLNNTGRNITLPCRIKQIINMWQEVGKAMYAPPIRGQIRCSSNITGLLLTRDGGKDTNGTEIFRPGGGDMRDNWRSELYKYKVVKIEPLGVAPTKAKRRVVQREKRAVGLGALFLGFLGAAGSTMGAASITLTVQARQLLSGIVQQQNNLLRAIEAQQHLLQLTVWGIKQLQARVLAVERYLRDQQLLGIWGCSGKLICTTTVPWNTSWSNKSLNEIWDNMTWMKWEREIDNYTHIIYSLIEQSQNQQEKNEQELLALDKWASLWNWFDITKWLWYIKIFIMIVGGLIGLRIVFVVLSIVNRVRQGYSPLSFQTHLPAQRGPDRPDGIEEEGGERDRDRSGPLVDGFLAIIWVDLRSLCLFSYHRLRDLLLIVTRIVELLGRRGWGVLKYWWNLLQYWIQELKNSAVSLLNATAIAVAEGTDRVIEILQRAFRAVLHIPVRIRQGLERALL

In the case of IgG1b12 antibody, in experiment [1], the 50% neutralization of recombinant virus, single-round luciferase entry assay (:g/ml (so in the source); symbol garbled)) is 2.5 and the 90% neutralization of recombinant virus, single-round luciferase entry assay (:g/ml (so in the source); symbol garbled)) was more than 10. For the same substance, in experiment [2], the 90% neutralization of recombinant virus, single-round luciferase entry assay (g/ml (so in the source); symbol garbled)) was determined as 1.25. Besides, in experiment [3], the 50% neutralization of recombinant virus, single-round luciferase entry assay (:g/ml (so in the source); symbol garbled)) came to 5 and the 90% neutralization of recombinant virus, single-round luciferase entry assay (:g/ml (so in the source); symbol garbled)) was more than 20.

The values are drawn from patent US20050106177A1.
